To fix the notation:
B1: Dynein light chain 2, cytoplasmic (Homo sapiens), Q96FJ2 (parent)
chain: MSDRKAVIKNADMSEDMQQDAVDCATQAMEKYNIEKDIAAYIKKEFDKKYNPTWHCIVGRNFGSYVTHETKHFIYFYLGQVAILLFKSG
partner: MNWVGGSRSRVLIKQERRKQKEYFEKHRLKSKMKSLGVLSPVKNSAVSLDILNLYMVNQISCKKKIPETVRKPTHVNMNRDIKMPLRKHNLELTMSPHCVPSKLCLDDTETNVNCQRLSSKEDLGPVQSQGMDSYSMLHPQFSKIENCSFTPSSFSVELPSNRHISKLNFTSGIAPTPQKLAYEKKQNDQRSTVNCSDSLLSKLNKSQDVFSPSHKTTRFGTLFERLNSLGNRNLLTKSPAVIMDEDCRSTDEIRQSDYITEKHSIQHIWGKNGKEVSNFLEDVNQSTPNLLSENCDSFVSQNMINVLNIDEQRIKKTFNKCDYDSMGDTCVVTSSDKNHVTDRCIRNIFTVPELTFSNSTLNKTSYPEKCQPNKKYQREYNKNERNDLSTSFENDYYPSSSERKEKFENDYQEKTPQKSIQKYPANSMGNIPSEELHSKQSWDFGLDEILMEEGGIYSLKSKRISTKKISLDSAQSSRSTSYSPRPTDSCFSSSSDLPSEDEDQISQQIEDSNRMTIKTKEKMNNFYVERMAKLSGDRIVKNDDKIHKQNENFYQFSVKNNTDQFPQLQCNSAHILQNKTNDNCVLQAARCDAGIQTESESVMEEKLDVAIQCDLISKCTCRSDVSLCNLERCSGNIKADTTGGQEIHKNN
B2: Calcium-binding and coiled-coil domain-containing protein 2 (Homo sapiens), Q13137 (parent)
chain: MEETIKDPPTSAVLLDHCHFSQVIFNSVEKFYIPGGDVTCHYTFTQHFIPRRKDWIGIFRVGWKTTREYYTFMWVTLPIDLNNKSAKQQEVQFKAYYLPKDDEYYQFCYVDEDGVVRGASIPFQFRPENEEDILVVTTQGEVEEIEQHNKELCKENQELKDSCISLQKQNSDMQAELQKKQEELETLQSINKKLELKVKEQKDYWETELLQLKEQNQKMSSENEKMGIRVDQLQAQLSTQEKEMEKLVQGDQDKTEQLEQLKKENDHLFLSLTEQRKDQKKLEQTVEQMKQNETTAMKKQQELMDENFDLSKRLSENEIICNALQRQKERLEGENDLLKRENSRLLSYMGLDFNSLPYQVPTSDEGGARQNPGLAYGNPYSGIQESSSPSPLSIKKCPICKADDICDHTLEQQQMQPLCFNCPICDKIFPATEKQIFEDHVFCHSL
partner: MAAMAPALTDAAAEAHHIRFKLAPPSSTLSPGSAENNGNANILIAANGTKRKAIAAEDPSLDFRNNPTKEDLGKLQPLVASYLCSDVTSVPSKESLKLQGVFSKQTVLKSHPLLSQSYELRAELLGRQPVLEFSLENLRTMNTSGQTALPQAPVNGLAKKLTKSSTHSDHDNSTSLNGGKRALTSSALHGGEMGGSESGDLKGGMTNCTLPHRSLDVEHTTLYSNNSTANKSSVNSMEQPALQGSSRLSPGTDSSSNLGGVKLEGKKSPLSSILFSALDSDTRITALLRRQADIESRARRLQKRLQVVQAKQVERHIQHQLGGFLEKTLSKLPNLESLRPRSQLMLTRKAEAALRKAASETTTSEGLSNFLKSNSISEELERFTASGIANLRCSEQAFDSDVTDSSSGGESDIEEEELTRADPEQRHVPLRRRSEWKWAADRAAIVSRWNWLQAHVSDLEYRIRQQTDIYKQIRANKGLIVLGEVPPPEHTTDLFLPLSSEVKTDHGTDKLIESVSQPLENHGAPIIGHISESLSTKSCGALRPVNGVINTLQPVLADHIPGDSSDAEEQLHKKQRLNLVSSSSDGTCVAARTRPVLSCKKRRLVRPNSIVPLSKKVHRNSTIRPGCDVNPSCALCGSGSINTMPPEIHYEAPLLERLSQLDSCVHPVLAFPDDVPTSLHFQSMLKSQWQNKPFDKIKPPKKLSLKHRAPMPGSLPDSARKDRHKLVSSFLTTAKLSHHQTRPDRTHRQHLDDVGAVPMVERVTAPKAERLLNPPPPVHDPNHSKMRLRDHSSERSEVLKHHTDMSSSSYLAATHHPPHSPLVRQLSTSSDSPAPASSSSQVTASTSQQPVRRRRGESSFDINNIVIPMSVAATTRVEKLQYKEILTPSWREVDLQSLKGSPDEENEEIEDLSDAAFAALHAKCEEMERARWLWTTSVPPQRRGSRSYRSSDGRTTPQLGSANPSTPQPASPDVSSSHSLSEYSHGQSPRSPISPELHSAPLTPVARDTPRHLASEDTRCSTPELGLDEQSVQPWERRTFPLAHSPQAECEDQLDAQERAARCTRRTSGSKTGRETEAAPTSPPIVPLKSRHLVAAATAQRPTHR
B3: Amphiphysin (Homo sapiens), P49418 (parent)
chain: MADIKTGIFAKNVQKRLNRAQEKVLQKLGKADETKDEQFEEYVQNFKRQEAEGTRLQRELRGYLAAIKGMQEASMKLTESLHEVYEPDWYGREDVKMVGEKCDVLWEDFHQKLVDGSLLTLDTYLGQFPDIKNRIAKRSRKLVDYDSARHHLEALQSSKRKDESRISKAEEEFQKAQKVFEEFNVDLQEELPSLWSRRVGFYVNTFKNVSSLEAKFHKEIAVLCHKLYEVMTKLGDQHADKAFTIQGAPSDSGPLRIAKTPSPPEEPSPLPSPTASPNHTLAPASPAPARPRSPSQTRKGPPVPPLPKVTPTKELQQENIISFFEDNFVPEISVTTPSQNEVPEVKKEETLLDLDFDPFKPEVTPAGSAGVTHSPMSQTLPWDLWTTSTDLVQPASGGSFNGFTQPQDTSLFTMQTDQSMICNLAESEQAPPTEPKAEEPLAAVTPAVGLDLGMDTRAEEPVEEAVIIPGADADAAVGTLVSAAEGAPGEEAEAEKATVPAGEGVSLEEAKIGTETTEGAESAQPEAEELEATVPQEKVIPSVVIEPASNHEEEGENEITIGAEPKETTEDAAPPGPTSETPELATEQKPIQDPQPTPSAPAMGAADQLASAREASQELPPGFLYKVETLHDFEAANSDELTLQRGDVVLVVPSDSEADQDAGWLVGVKESDWLQYRDLATYKGLFPENFTRRLD
partner: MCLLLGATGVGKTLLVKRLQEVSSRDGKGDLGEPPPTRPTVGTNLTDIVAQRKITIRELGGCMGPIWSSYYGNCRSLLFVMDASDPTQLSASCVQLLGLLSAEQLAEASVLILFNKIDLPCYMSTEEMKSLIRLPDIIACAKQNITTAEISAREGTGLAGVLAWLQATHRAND
B4: Alpha-ketoglutarate-dependent dioxygenase alkB homolog 3 (Homo sapiens), Q96Q83 (parent)
chain: MEEKRRRARVQGAWAAPVKSQAIAQPATTAKSHLHQKPGQTWKNKEHHLSDREFVFKEPQQVVRRAPEPRVIDREGVYEISLSPTGVSRVCLYPGFVDVKEADWILEQLCQDVPWKQRTGIREDITYQQPRLTAWYGELPYTYSRITMEPNPHWHPVLRTLKNRIEENTGHTFNSLLCNLYRNEKDSVDWHSDDEPSLGRCPIIASLSFGATRTFEMRKKPPPEENGDYTYVERVKIPLDHGTLLIMEGATQADWQHRVPKEYHSREPRVNLTFRTVYPDPRGAPW

The variants in the first experiment derive from B1. Particulars: with rdic1_human REDIC1, Q86WS4.
For the variant E30D, the “effect of a mutation on the interaction” value is reported as “with no effect”.

In the next experiment the parent is B2. Particulars: with kanl1_human KANSL1, Q7Z3B3.
Regarding T273A, the “effect of a mutation on the interaction” value is “with no effect”.
With P389A, the “effect of a mutation on the interaction” value was “with no effect”.

Variants of B3 are the subject of the next experiment. Particulars: with arl16_human ARL16, Q0P5N6.
In the case of M376I, the “effect of a mutation on the interaction” value is recorded as “with no effect”.

Another experiment covers variants of B4. As to conditions: with ikzf1_human IKZF1, Q13422.
Sequence of ikzf1_human IKZF1, Q13422 (Q13422 whole entry): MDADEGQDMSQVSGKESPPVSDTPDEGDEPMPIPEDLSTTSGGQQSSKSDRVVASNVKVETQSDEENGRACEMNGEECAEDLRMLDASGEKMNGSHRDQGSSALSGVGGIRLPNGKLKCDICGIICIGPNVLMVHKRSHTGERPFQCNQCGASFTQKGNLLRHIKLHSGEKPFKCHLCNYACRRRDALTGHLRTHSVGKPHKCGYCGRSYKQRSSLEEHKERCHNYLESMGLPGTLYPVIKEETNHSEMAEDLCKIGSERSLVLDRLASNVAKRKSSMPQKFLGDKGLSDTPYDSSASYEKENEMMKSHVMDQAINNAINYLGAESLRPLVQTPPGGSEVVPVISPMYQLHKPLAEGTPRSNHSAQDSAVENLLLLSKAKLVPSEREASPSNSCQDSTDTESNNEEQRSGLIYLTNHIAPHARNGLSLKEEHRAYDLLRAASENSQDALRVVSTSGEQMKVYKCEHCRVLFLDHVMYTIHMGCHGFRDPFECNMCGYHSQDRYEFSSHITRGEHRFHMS
In the case of N226S, the “effect of a mutation on the interaction” value is on record as “with no effect”.
The same measure, in the same setting: the same measure for R213C: “with no effect”.

(Values after IntAct's records for PubMed 31515488.)
